Source: article PMC8263732, “M1BP cooperates with CP190 to activate transcription at TAD borders and promote chromatin insulator activity” (Nature Communications, 2021)

Experiments:
Assay in all cases: co-IP; 500 ug nuclear extract of 0-24 h Drosophila embryos incubated overnight at 4 C with antiserum (anti-Su(Hw), anti-CP190, anti-Mod(mdg4)67.2 or anti-M1BP; normal serum as control) cross-linked to Protein A or G Sepharose; washed twice with HBSMT and once with HBSM; western blotting; efficiency as percent of total input protein
Conditions in all cases: partners not purified
[1] = target: T1, Modifier of mdg4 [Mod(mdg4)] 67.2 kDa isoform [Mod(mdg4)67.2] (Drosophila (endogenous in 0-24 h Oregon …, UniProt Q86B87 1-610))
T1 construct: Modifier of mdg4, the 67.2 kDa isoform, Drosophila; The gene has many isoforms; the 67.2 kDa isoform is meant; to be checked; source: endogenous, nuclear extract of 0-24 h Drosophila embryos
T1 sequence (looked up): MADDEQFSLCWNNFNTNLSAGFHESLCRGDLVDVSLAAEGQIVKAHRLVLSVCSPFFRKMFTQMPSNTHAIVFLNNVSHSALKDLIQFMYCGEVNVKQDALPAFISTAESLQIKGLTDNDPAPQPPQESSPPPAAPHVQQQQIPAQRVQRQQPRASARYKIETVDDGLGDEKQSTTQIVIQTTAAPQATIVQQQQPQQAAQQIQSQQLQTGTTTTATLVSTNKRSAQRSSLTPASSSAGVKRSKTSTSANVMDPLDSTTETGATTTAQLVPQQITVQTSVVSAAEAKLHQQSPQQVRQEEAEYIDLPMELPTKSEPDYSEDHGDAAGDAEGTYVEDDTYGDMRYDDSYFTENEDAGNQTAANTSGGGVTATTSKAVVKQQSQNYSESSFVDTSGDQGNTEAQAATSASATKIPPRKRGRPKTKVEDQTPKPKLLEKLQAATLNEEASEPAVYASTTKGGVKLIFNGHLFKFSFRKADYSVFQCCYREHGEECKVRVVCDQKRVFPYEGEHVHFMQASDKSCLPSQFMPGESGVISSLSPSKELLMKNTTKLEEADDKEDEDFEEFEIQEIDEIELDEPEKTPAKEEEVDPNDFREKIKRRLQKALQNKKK

[2] = target: T2, Motif 1 Binding Protein (M1BP) (Drosophila (endogenous in 0-24 h Oregon …, UniProt Q9VHM3 1-418))
T2 construct: endogenous protein in embryonic nuclear extract; source: endogenous, nuclear extract of 0-24 h Drosophila embryos
T2 sequence (looked up): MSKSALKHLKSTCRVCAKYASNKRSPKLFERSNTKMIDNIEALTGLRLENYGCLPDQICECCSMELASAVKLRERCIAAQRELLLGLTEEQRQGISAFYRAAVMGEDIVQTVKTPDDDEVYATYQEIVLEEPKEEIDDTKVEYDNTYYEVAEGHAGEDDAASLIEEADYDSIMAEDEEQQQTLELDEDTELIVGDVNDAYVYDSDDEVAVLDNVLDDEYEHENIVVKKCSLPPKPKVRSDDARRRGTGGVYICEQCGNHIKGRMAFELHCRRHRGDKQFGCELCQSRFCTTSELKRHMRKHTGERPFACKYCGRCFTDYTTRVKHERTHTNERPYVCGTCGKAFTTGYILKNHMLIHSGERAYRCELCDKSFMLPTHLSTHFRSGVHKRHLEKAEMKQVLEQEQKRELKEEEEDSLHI

[3] = target: T3, Centrosomal protein 190 (CP190) (Drosophila (endogenous in 0-24 h Oregon …, UniProt Q24478 1-1096))
T3 construct: Centrosomal protein 190 (CP190), universal insulator protein of Drosophila; endogenous protein in embryonic nuclear extract; source: endogenous, nuclear extract of 0-24 h Drosophila embryos
T3 sequence (looked up): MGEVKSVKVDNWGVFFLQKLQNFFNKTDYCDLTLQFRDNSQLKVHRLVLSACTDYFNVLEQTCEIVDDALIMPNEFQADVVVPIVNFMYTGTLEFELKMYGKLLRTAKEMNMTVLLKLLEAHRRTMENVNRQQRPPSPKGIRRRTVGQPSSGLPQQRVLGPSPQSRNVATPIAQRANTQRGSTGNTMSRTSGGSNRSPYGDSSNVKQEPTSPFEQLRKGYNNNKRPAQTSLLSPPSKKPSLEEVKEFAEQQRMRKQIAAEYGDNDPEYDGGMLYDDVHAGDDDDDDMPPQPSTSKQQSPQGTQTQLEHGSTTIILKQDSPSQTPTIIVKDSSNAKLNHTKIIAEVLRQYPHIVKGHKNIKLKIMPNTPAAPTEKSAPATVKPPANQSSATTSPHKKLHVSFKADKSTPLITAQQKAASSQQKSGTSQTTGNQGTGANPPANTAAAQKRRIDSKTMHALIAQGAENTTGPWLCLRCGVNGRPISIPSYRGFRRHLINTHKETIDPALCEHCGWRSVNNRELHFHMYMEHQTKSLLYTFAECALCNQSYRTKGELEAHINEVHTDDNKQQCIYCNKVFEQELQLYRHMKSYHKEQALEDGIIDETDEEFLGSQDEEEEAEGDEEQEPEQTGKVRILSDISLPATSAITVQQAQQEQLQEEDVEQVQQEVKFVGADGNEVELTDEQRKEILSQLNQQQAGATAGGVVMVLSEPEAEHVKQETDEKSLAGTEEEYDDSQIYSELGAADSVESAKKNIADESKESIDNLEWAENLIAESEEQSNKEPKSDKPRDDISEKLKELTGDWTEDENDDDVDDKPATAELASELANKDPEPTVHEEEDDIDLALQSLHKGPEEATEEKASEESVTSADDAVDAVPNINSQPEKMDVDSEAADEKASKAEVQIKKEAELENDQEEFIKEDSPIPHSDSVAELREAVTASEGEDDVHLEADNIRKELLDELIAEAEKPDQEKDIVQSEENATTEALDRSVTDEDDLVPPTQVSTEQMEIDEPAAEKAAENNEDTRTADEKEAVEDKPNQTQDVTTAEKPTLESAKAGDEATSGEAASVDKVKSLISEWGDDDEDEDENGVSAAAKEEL

percent of total protein immunoprecipitated with anti-Mod(mdg4)67.2 [1]: 8.5% | percent of total protein immunoprecipitated with anti-M1BP [2]: 2.6% | percent of total protein immunoprecipitated with anti-CP190 [3]: 7%
B1: Suppressor of Hairy wing [Su(Hw)] (natural protein, UniProt P08970 1-941, looked up)
chain: MSASKEGKEKKGKLLGVENISPPKDKRPATRMKLLNDVGAGEDSEASTTTTTSRTPSNKQEKRGSVAGSRIKILNEEILGTPKTEKRGATKSTAPAASTVKILNEKKTPSATVTAVETTKIKTSPSKRKKMEHYVLQAVKSENTKADTTVTVVTEEDDTIDFILADDEEVVPGRIENNNGQEIVVTEDDEDLGEDGDEDGEDSSGKGNSSQTKIKEIVEHVCGKCYKTFRRVQSLKKHLEFCRYDSGYHLRKADMLKNLEKIEKDAVVMEKKDICFCCSESYDTFHLGHINCPDCPKSFKTQTSYERHIFITHSEFSDFPCSICNANLRSEALLALHEEQHKSRGKPYACKICGKDFTRSYHLKRHQKYSSCSSNETDTMSCKVCDRVFYRLDNLRSHLKQHLGTQVVKKPEYMCHTCKNCFYSLSTLNIHIRTHTGEKPFDCDLCDKKFSALVALKKHRRYHTGEKPYSCTVCNQAFAVKEVLNRHMKRHTGERPHKCDECGKSFIQATQLRTHSKTHIRPFPCEQCDEKFKTEKQLERHVKTHSRTKRPVFSCAECKRNFRTPALLKEHMDEGKHSPKQQRSSMRSAVKIMERTDCAICDKNFDSSDTLRRHIRTVHECDPDDIFGVEPHPSKRAKKDIESEEVVPVALNTSAGSLISSQTDGNGVVVREFLVDEGDGAAQTITLENETYTILPLDGAIEGEQLTDEAGVKPEAKKEEAQVSPVVKKEQRKSLAASLAAAIADNLEESCSEDDFSGEILTEEDIKLKENVGKLIDMLVDPPILKKYGWPNAPEETVLCKVIENCGHDLTKGGENYAELDYGSRMREYCKLLFTVVIHNDSIKSLLNNFPIDDVIEYVLGDEDQDEGGLDKDNESHSGDEEAVSVTGETKTNEIREKPEKKEVSAKSEKKEIVGKAVDKDNSEEVVRENKKKPVGEQEKA
notes: endogenous protein in embryonic nuclear extract; source: endogenous, nuclear extract of 0-24 h Drosophila embryos
